Measurements reported in patent US20040121411.

How the values were obtained:
[1] = system: radiolabeled βAPP-C100 polypeptide mimic
[2] = system: radiolabeled βAPP-C83 polypeptide mimic

For “solubilized gamma-secretase complex (gamma-secretase associated with PS1) from HeLa cell membranes”, the “cleavage of 35S-labeled substrate, SDS-PAGE and phosphorimager” value [1] was “The radiolabeled βAPP-C100 substrate was cleaved by the gamma-secretase complexes present in the solubilized protein and protein complex preparation (FIGS. 6 and 7) and the affinity enriched protein preparation (FIG. 8), to yield a 6 kDa cleavage product” and the “cleavage of 35S-labeled substrate, SDS-PAGE and phosphorimager” value [2] was “The radiolabeled βAPP-C83 substrate was also cleaved by the gamma-secretase complexes present in the solubilized protein and protein complex preparation (FIG. 7) and the affinity enriched protein preparation, to yield a 6 kDa cleavage product”.
